Reference: patent publication US20210179724A1

Assays:
[1] = molecular target: adenosine A2A receptor (Homo sapiens (Human)) (UniProt P29274); test: flow cytometry, HEK293-A2a cells; Parent Singlets in the same table: 230
[2] = molecular target: adenosine A2A receptor (Homo sapiens (Human)) (UniProt P29274); test: flow cytometry, HEK293-A2a cells; Parent Singlets in the same table: 230; same picture as FIG. 16O
[3] = molecular target: adenosine A2A receptor (Homo sapiens (Human)) (UniProt P29274); test: cell-based or functional assay

Chain of adenosine A2A receptor (Homo sapiens (Human)) (P29274 whole entry): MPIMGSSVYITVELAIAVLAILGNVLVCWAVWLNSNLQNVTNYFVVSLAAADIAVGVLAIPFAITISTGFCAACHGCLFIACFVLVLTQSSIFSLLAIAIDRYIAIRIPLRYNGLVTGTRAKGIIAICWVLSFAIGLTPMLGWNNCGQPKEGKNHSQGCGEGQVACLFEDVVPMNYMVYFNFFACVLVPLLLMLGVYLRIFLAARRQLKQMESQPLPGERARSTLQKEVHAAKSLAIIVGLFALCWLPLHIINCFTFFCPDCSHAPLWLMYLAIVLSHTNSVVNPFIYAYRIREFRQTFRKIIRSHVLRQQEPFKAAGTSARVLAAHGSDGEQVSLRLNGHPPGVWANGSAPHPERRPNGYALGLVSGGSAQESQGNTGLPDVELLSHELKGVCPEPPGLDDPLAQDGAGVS

Substance | Median : RL1-H (A2a Singlets) [1] | Median : RL1-H (A2a Singlets) [2] | Absolute IC50, A2A cAMP antagonist titration (as in Example 16: titrated IgG, fixed NECA) [3] | Absolute IC50, LANCE allosteric cAMP assay, titrated IgG then fixed NECA concentration [3] | Absolute IC50, cAMP allosteric A2A assay (as in Example 15: fixed IgG, NECA titration) [3] | Absolute IC50 of NECA titration in cAMP assay, cells pre-incubated with fixed 100 nM IgG [3]
Human Adenosine A2aR monoclonal (MAB9497) (antibody) | 7500 | 7500 | – | – | – | –
R&D control antibody | – | – | 9.43 | 9.43 | 0.513 | 2.25
